According to article PMC8546121 (Nature Communications, 2021):

Legend:
[1] = target: MACV MBP-Z fusion protein (full-length wild-type MACV Z protein) (Machupo virus) (UniProt Q6IUF9); assay: […] (20 mM Tris-HCl pH 8.0, 500 mM NaCl, 2 mM DTT), […]
[2] = target: Machupo virus (MACV) L protein (Machupo virus, UniProt Q6IUF8 1-2209); assay: as above; settings: both partners purified
Chain of Machupo virus (MACV) L protein (Q6IUF8 whole entry): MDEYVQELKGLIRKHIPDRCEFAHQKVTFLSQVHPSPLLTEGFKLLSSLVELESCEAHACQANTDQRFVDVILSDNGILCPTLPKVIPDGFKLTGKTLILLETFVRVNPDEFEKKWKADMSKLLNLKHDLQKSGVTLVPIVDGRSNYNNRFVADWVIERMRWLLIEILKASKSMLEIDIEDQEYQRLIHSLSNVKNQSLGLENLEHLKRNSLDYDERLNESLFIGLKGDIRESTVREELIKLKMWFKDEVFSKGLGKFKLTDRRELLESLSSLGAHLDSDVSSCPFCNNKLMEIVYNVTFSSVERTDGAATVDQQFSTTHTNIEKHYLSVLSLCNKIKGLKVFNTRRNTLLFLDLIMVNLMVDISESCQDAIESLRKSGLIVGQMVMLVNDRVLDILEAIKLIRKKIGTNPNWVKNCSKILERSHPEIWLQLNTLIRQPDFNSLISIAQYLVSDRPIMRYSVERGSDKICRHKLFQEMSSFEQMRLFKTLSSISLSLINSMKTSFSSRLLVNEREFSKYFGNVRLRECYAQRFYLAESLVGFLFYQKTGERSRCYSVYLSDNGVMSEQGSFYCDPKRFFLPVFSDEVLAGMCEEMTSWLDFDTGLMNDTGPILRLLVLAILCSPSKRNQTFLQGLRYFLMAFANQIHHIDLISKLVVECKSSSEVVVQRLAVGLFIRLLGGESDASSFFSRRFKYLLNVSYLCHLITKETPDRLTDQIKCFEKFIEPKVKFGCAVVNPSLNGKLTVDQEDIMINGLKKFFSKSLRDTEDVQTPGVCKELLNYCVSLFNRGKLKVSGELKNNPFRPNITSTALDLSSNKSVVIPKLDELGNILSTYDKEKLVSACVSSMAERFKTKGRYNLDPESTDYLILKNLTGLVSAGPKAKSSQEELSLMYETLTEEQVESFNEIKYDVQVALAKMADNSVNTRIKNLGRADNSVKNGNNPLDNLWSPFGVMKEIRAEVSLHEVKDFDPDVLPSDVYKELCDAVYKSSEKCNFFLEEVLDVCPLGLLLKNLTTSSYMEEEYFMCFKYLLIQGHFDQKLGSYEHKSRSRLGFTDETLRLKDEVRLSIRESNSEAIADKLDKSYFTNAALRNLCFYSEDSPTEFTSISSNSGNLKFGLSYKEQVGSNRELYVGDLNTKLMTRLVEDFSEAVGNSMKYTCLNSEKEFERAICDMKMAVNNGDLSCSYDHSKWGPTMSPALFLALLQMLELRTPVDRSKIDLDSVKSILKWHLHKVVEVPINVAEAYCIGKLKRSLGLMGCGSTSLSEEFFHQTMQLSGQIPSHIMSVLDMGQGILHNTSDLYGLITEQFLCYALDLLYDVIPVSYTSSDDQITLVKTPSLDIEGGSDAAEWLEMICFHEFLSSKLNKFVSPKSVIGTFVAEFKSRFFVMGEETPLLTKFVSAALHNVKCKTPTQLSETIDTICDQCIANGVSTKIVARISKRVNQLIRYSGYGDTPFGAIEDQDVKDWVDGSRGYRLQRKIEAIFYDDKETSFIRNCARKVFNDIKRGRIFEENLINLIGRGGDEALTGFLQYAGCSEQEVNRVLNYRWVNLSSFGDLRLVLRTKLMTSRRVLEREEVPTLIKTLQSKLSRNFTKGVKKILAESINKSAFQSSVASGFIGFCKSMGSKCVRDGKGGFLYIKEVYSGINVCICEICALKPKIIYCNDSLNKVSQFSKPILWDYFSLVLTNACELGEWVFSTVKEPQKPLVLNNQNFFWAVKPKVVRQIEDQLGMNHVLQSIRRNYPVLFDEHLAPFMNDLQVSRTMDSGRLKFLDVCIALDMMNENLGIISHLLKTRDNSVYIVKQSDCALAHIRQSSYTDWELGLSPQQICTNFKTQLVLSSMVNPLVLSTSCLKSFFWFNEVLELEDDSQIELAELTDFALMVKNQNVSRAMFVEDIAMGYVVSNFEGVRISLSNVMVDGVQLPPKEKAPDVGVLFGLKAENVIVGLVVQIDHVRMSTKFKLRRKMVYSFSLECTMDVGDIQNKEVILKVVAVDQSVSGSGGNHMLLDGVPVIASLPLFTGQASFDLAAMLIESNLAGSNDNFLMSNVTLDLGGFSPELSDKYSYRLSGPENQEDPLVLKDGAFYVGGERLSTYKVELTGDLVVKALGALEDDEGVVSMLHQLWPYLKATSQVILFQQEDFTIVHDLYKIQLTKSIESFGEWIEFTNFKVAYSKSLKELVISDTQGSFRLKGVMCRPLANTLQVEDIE

**Q.** With “Machupo virus (MACV) L protein, Q6IUF8 1-2209” as the molecule, how does the stoichiometry N [1] read?
**A.** 1 Z:L

B1: MACV MBP-Z fusion protein (full-length wild-type MACV Z protein) (natural protein)
chain: MGNCNKPPKRPPNTQTSAAQPSAEFRRTALPSLYGRYNCKCCWFADTNLITCNDHYLCLRCHQTMLRNSELCHICWKPLPTSITVPVEPSAPPP
**Q.** Does B1 bind [2]?
**A.** binds
